Data reported in paper PMC2935574 (The Journal of Cell Biology, 2010).

Experiments:
[1] = target: T1, MIS12 complex (full-length MIS12C) (human, UniProt Q9H081 1-205; Q6P1K2 1-205; Q9H410 1-356; Q96IY1 1-281); assay: pull-down
T1 sequence (looked up) 1: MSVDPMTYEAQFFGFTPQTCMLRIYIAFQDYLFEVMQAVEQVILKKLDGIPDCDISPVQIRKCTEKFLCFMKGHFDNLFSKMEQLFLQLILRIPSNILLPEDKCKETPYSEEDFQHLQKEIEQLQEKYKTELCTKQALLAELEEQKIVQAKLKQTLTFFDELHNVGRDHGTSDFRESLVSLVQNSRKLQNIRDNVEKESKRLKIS
T1 sequence (looked up) 2: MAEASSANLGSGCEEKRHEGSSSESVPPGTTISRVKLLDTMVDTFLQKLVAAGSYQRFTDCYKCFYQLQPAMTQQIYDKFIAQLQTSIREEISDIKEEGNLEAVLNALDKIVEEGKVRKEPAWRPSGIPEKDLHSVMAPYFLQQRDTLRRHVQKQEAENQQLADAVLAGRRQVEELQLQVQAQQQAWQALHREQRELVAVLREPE
T1 sequence (looked up) 3: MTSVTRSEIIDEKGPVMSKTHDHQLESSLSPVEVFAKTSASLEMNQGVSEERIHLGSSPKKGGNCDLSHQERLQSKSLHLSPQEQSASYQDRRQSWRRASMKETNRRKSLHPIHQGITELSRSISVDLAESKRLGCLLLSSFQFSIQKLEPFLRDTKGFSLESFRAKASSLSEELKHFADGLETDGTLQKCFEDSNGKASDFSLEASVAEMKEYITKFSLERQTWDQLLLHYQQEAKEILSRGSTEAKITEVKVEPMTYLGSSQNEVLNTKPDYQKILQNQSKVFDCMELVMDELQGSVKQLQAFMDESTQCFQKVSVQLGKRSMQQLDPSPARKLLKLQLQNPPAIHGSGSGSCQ
T1 sequence (looked up) 4: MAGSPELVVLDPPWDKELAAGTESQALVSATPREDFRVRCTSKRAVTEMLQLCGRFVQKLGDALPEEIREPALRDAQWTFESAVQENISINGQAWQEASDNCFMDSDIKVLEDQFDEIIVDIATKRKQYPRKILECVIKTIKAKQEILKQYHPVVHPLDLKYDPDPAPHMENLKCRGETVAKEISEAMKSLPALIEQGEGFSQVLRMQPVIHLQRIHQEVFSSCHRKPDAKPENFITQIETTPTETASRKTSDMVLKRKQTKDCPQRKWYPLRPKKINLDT

[2] = target: T2, MIS12C^NSL1-258 (MIS12 complex with NSL1 residues 1–258) (human, UniProt Q9H081 1-205; Q6P1K2 1-205; Q9H410 1-356; Q96IY1 1-258); assay: AUC
T2 sequence (looked up) 1: T1 sequence (looked up) 1
T2 sequence (looked up) 2: T1 sequence (looked up) 2
T2 sequence (looked up) 3: T1 sequence (looked up) 3
T2 sequence (looked up) 4: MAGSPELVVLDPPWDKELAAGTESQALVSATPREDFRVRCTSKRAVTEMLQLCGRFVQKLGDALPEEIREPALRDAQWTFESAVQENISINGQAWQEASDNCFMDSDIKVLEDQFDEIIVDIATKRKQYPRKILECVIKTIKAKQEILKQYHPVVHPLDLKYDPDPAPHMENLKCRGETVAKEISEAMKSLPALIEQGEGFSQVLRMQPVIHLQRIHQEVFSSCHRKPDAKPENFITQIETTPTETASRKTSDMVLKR

[3] = target: T2, MIS12C^NSL1-258 (MIS12 complex with …); assay: ITC
SPC25^70–224 = target: T3, SPC25^70–224 (human, UniProt Q9HBM1 70-224); assay: AUC
T3 sequence (looked up): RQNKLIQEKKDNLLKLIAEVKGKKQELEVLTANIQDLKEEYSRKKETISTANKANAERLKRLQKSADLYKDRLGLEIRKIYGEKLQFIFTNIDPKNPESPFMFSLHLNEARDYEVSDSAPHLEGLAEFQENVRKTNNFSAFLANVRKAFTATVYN

[4] = target: T4, DSN1 (subunit of MIS12C, hexahistidine tag) (human, UniProt Q9H410 1-356); assay: co-expression and co-purification
T4 sequence (looked up): T1 sequence (looked up) 3

B1: GST-KNL1^1904–2316 (domain or fragment, human, UniProt Q8NG31-2 1904-2316, looked up)
chain: EDLMLSQYVYRPKIQIYREDCEARRQKIEELKLSASNQDKLLVDINKNLWEKMRHCSDKELKAFGIYLNKIKSCFTKMTKVFTHQGKVALYGKLVQSAQNEREKLQIKIDEMDKILKKIDNCLTEMETETKNLEDEEKNNPVEEWDSEMRAAEKELEQLKTEEEELQRNLLELEVQKEQTLAQIDFMQKQRNRTEELLDQLSLSEWDVVEWSDDQAVFTFVYDTIQLTITFEESVVGFPFLDKRYRKIVDVNFQSLLDEDQAPPSSLLVHKLIFQYVEEKESWKKTCTTQHQLPKMLEEFSLVVHHCRLLGEEIEYLKRWGPNYNLMNIDINNNELRLLFSSSAAFAKFEITLFLSAYYPSVPLPSTIQNHVGNTSQDDIATILSKVPLENNYLKNVVKQIYQDLFQDCHFYH
B1: binds [1].

B2: SPC24^57–197–SPC25^70–224 (complex, human)
chain 1: TMEKEVAQSLLNAKEQVHQGGVELQQLEAGLQEAGEEDTRLKASLLQLTRELEELKEIEADLERQEKEVDEDTTVTIPSAVYVAQLYHQVSKIEWDYECEPGMVKGIHHGPSVAQPIHLDSTQLSRKFISDYLWSLVDTEW
chain 2: T3 sequence (looked up)
With B2 the “stoichiometry N” value [2] was 1 and the Kd [3] was roughly 10 nM.

B3: SPC24^57–197 (domain or fragment, human, UniProt Q8NBT2 57-197, looked up)
chain: B2 chain 1
For B3, the “stoichiometry N” value (SPC25^70–224) was 1.

B4: MIS12 (subunit of MIS12C) (natural protein, human, UniProt Q9H081 1-205, looked up)
chain: T1 sequence (looked up) 1
B4: binds [4].
